Measured values: patent publication US20090233868A1, “Small antiviral peptides against hepatitis C virus” (priority 2005, published 2009)

Legend:
[1] = system: nonspecific RNA; assay: Filter binding assay with nonspecific RNA probe; conditions: control probe, same filter-binding assay
[2] = system: HCV IRES mediated translation; assay: In vitro translation of uncapped HCV-IRES-Luc monocistronic RNA in rabbit reticulocyte lysate; format: biochemical, hepatitis C virus; conditions: 25 ng and 50 ng protein; data not shown

B1: wt-La: purified recombinant full-length wildtype human La protein (p52) (protein, UniProt P05455 1-408, looked up)
chain: MAENGDNEKMAALEAKICHQIEYYFGDFNLPRDKFLKEQIKLDEGWVPLEIMIKFNRLNRLTTDFNVIVEALSKSKAELMEISEDKTKIRRSPSKPLPEVTDEYKNDVKNRSVYIKGFPTDATLDDIKEWLEDKGQVLNIQMRRTLHKAFKGSIFVVFDSIESAKKFVETPGQKYKETDLLILFKDDYFAKKNEERKQNKVEAKLRAKQEQEAKQKLEEDAEMKSLEEKIGCLLKFSGDLDDQTCREDLHILFSNHGEIKWIDFVRGAKEGIILFKEKAKEALGKAKDANNGNLQLRNKEVTWEVLEGEVEKEALKKIIEDQQESLNKWKSKGRRFKGKGKGNKAAQPGSGKGKVQFQGKKTKFASDDEHDEHDENGATGPVKRAREETDKEEPASKQQKTENGAGDQ
modifications: full-length
Binding of non-specific RNA probe (filter binding) [1]: did not show considerable binding | Stimulation of HCV IRES mediated translation in absence of peptide [2]: dose dependent stimulation
